Here are results for five molecules from publication doi:10.1101/2021.04.27.441571.

For assay [1], the target named is talin R3-IVVI domain.
For assay [2], the target named is wild type (WT) talin R3 domain.
The target in assay [3] is talin R3-IVVI domain. This is another data set of the same source.
In assay [4] the target is talin R3-IVVI domain. The source holds these as a separate data set.
Assay [5] concerns the target talin R3-IVVI domain. The source holds these as a separate data set.

Regarding “DnaJ (from UniProt P08622 1-376) (natural protein)”, the percent of force-ramp events of R3-IVVI with hysteresis, with DnaJ; control ∼9% in the assay with talin R3-IVVI domain [1] came out at 86%. The molecule also registered an intersection force of R3-WT with DnaJ; without chaperone ∼6 pN in assay [2] of 4 pN.

In the case of “DnaK (from UniProt P0A6Y8 1-638) (natural protein)”, the percent of force-ramp events of R3-IVVI with hysteresis, with DnaK; control ∼9% with talin R3-IVVI domain [1] was 91%. Also, the intersection force of R3-WT with DnaK; without chaperone ∼6 pN in assay [2] was determined as 4 pN. In the assay with talin R3-IVVI domain [3], the unfolding force of R3-IVVI in the presence of DnaK, DnaJ and ADP (DnaKJ-ADP) was 6 pN; the unfolding force of R3-IVVI with DnaK after addition of ATP (apo-DnaK: ∼6 pN) turned out to be 7.5 pN. In the assay with talin R3-IVVI domain [4], this molecule had an intersection force of R3-IVVI with DnaK-ADP complex (chevron plot) of 7.1 pN and an intersection force of R3-IVVI with DnaK-ATP (chevron plot) of 7.6 pN.

Regarding “Hsp40 (from UniProt P25685 1-340) (natural protein)”, in the assay with talin R3-IVVI domain [5], the intersection force of talin R3-IVVI (chevron plot), with Hsp40; control 9.8 pN was 7.8 pN.

Consider “Hsp70 (from UniProt P0DMV8 1-641) (natural protein)”, for which, in the assay with talin R3-IVVI domain [5], the intersection force of talin R3-IVVI (chevron plot), with Hsp70; control 9.8 pN stood at 7.2 pN.

B1: DsbA (oxidized) (enzyme)
chain: AQYEDGKQYTTLEKPVAGAPQVLEFFSFFCPHCYQFEEVLHISDNVKKKLPEGVKMTKYHVNFMGGDLGKDLTQAWAVAMALGVEDKVTVPLFEGVQKTQTIRSASDIRDVFINAGIKGEEYDAAWNSFVVKSLVAQQEKAAADVQLRGVPAMFVNGKYQLNPQGMDTSNMDVFVQQYADTVKYLSEKK
modifications: oxidized (0.3% H2O2 overnight)
For the molecule B1, the intersection force of R3-WT with DsbA; without chaperone ∼6 pN in assay [2] worked out at 10 pN.
